Results from patent publication US20210322547A1.

Key:
[1] = biological target: Recombinant human GM-CSF (expression source not stated) (human) (UniProt P04141); test: competition ELISA; plate coated with 50 ng/well recombinant GM-CSF; unlabeled antibody titrated together with 50 nM biotinylated Ab2; competition for 1 hr; neutravidin-HRP detection, A450
[2] = biological target: Recombinant human GM-CSF (expression source not stated) (human) (UniProt P04141); test: competition ELISA; plate coated with 50 ng/well recombinant GM-CSF; unlabeled antibody titrated together with 50 nM biotinylated Ab2; competition for 18 hrs; neutravidin-HRP detection, A450

UniProt P04141, sequence (P04141 18-144 limits assumed): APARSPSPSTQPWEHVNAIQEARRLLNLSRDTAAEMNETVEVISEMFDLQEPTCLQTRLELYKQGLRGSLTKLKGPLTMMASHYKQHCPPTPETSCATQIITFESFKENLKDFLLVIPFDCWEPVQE

IC50 [1]: 122 nM | IC50 [2]: 94 nM
Substance: Ab2, chimeric IgG1k antibody having variable regions from the mouse antibody LMM102
